This note sets out measurements from patent US5981483.

One test deals with BMP-4. Nature of the test: SPR (BIAcore); analyte over immobilized cytokine. A general note: In SPR one partner is held on a chip, and binding of the other changes the refractive index at the surface.
The next test has as its target TGF-β2. The test is described as follows: SPR (BIAcore); analyte over immobilized cytokine.
The target in test [1] is purified human TGF-β1 (human) (UniProt P01137).
Test [2] shares this target. The source holds these as a separate data set.

In the test with BMP-4, “bovine thyroglobulin (from UniProt P01267)” returned a Kd of 20 nM, a koff of 0.0011 s⁻¹ and a kon of 54000 M⁻¹ s⁻¹. In the test with TGF-β2, this substance yielded a Kd of 3800 nM, a koff of 0.005 s⁻¹ and a kon of 1300 M⁻¹ s⁻¹. The IC50, neutralization of TGF-β1 activity in the Mv1Lu growth inhibition assay in test [1] was found to be 220 nM. Also, the percent neutralization of the antiproliferative activity of TGF-β1 (3H-thymidine incorporation, Mv1Lu cells) in test [2] amounted to 150%.

One may read the Kd as the equilibrium constant for the complex coming apart. By koff is commonly meant the first-order rate constant of dissociation. A low value points to a long-lived complex. Usually kon stands for the second-order rate constant of association. A high value points to faster complex formation.
